The results in this text go back to patent US20240252614A1 (Pfizer, published 2024).

Experiment [1] has as its target T1, stabilized hMPV F protein trimer in pre-fusion conformation (human metapneumovirus).
T1 construct: also called preF-hMPV; hMPV pre-fusion F protein
Put plainly: SPR (Biacore 8K+), mAb captured on Protein A chip. On the technique in general: In SPR one partner is held on a chip, and binding of the other changes the refractive index at the surface.
Description: (§1) To avoid conformation changes of F protein while coupling to SPR sensor chip an orientation-specific binding of antibodies through constant (Fc) region was chosen to determine affinity of the newly discovered antibodies using Biacore 8K+ system (Cytiva) and corresponding InSight Software (Cytiva) for analysis. […] Unbound antibodies were washed off with 1×HBS-P buffer. […] Dissociation time was set to 600 seconds to allow for elongated fitting model. Chip was regenerated with two cycles of 4.5M MgCI2 solution. […] Affinity of antibodies were reported in molar concentrations as ratio of dissociation and association.

For the next experiment, the target named is T2, hMPV106 (hMPV B, UniProt Q6WB98 19-102).
T2 construct: T49I
Description: BLI, 56C stress. For orientation: Biolayer interferometry detects binding as a change in optical thickness at a sensor tip.

The next experiment deals with hMPV B F WT Control (hMPV B, UniProt Q6WB98 19-102). Put plainly: BLI, 56C stress.
In a further experiment the target is T3, hMPV103 (hMPV B, UniProt Q6WB98 19-102).
T3 construct: E146C-T160C
Put plainly: BLI, 56C stress.

In another experiment the target is T4, hMPV102 (hMPV B, UniProt Q6WB98 19-102).
T4 construct: L141C-A161C
Put plainly: BLI, 56C stress.

The target in the next experiment is T5, hMPV100 (hMPV B, UniProt Q6WB98 19-102).
T5 construct: T411C-Q434C
Description: BLI, 56C stress.

For another experiment, the target named is T6, hMPV104 (hMPV B, UniProt Q6WB98 19-102).
T6 construct: A459P
Put plainly: BLI, 56C stress.

A further experiment deals with T7, hMPV107 (hMPV B, UniProt Q6WB98 19-102).
T7 construct: S149T
Put plainly: BLI, 56C stress.

The next experiment deals with T8, hMPV101 (hMPV B, UniProt Q6WB98 19-102).
T8 construct: A140C-S149C
Put plainly: BLI, 56C stress.

For the next experiment, the target named is T9, hMPV105 (hMPV B, UniProt Q6WB98 19-102).
T9 construct: G239A
Description: BLI, 56C stress.

In a further experiment the target is T10, hMPV108 (hMPV B, UniProt Q6WB98 19-102).
T10 construct: T365I
Put plainly: BLI, 56C stress.

The next experiment concerns the target T11, hMPV086 (hMPV A, UniProt Q6WB98 19-102).
T11 construct: T411C-Q434C, L141C-A161C, T49I; also called hMP0086
Description: BLI, 53C stress.

In a further experiment the target is T12, hMPV081 (hMPV A, UniProt Q6WB98 19-102).
T12 construct: T411C-Q434C, A140C-S149C, T365I
Description: BLI, 53C stress.

A further experiment has as its target T13, hMPV084 (hMPV A, UniProt Q6WB98 19-102).
T13 construct: T411C-Q434C, L141C-A161C
Put plainly: BLI, 53C stress.

Another experiment deals with hMPV A F WT Control (hMPV A, UniProt Q6WB98 19-102). Put plainly: BLI, 53C stress.
Another experiment addresses T14, hMPV089 (hMPV A, UniProt Q6WB98 19-102).
T14 construct: T411C-Q434C, L141C-A161C, S149T
Description: BLI, 53C stress.

The next experiment has as its target T15, hMPV088 (hMPV A, UniProt Q6WB98 19-102).
T15 construct: T411C-Q434C, L141C-A161C, G239A
Description: BLI, 53C stress.

A further experiment concerns the target T16, hMPV078 (hMPV A, UniProt Q6WB98 19-102).
T16 construct: T411C-Q434C, A140C-S149C
Put plainly: BLI, 53C stress.

The target in the next experiment is T17, hMPV097 (hMPV A, UniProt Q6WB98 19-102).
T17 construct: T411C-Q434C, E146C-T160C, A459P, G239A, T49I, S149T, T365I
Put plainly: BLI, 53C stress.

A further experiment concerns the target T18, hMPV079 (hMPV A, UniProt Q6WB98 19-102).
T18 construct: T411C-Q434C, A140C-S149C, A459P
Description: BLI, 53C stress.

The target of experiment [2] is T1, stabilized hMPV F protein trimer in …. Put plainly: BLI, mAb captured, F protein at 50 nM.
Experiment [3] deals with T19, stabilized hPIV1 F protein trimer in pre-fusion conformation (human parainfluenza virus 1).
T19 construct: also called preF-hPIV1; HPIV1 pre-fusion F protein
Put plainly: SPR (Biacore 8K+), mAb captured on Protein A chip.
Description: as §1

The target in the next experiment is T20, PIV1028 (PIV1).
T20 construct: A480L
Put plainly: BLI, 53C stress.

A further experiment concerns the target T21, PIV1031 (PIV1).
T21 construct: A466L, S473L
Put plainly: BLI, 53C stress.

The target in a further experiment is T22, PIV1036 (PIV1).
T22 construct: G134A
Put plainly: BLI, 53C stress.

The next experiment addresses T23, PIV1033 (PIV1).
T23 construct: T198A
Put plainly: BLI, 53C stress.

A further experiment addresses T24, PIV1039 (PIV1).
T24 construct: A128P
Description: BLI, 53C stress.

For another experiment, the target named is T25, PIV1026 (PIV1).
T25 construct: S473V
Put plainly: BLI, 53C stress.

The target in a further experiment is T26, PIV1024 (PIV1).
T26 construct: A466V
Put plainly: BLI, 53C stress.

The target in the next experiment is T27, PIV1030 (PIV1).
T27 construct: A466L, S473A
Description: BLI, 53C stress.

A further experiment deals with T28, PIV1023 (PIV1).
T28 construct: A466L
Put plainly: BLI, 53C stress.

The target in a further experiment is T29, PIV1027 (PIV1).
T29 construct: S473L
Put plainly: BLI, 53C stress.

In the next experiment the target is T30, PIV1014 (PIV1).
T30 construct: Q92C-G134C
Put plainly: BLI, 53C stress.

Experiment [4] deals with T31, PIV1 F literature prefusion comparison (PIV1).
T31 construct: F113G, F114S, A466I, S473I (Stewart-Jones et al. 2018)
Description: BLI, 56C stress.
Description: (§2) The OCTET HTX (Sartorius, Gottingen, Germany) instrument was used to evaluate the expression and conformational integrity for each mutant. All measurements were conducted at 30° C. temperature in 96-well black plates (Corning, Corning, NY) with a final volume of 240 μL per well at a constant agitation rate of 1000 RPM.
(§3) Conformation integrity of PIV1 F protein mutants were evaluated by a thermal stress experiment. Crude cell culture supernatants were normalized based on the results of the titer quantitation and then incubated for 1 hour at room temperature and two higher temperatures. For the initial testing of PIV1 mutants, the two temperatures were 50° C. and 53° C. […] Anti-Human IgG Fc Capture (AHC) biosensors were first equilibrated in PB for before being dipped into more PB to establish the initial baseline. […] The mAb-bound biosensors were then dipped into the thermal stresses cell culture supernatants for 5 minutes.

The target of a further experiment is T32, PIV1069 (PIV1).
T32 construct: F113G, F114S, A466L, S473L, G134A
Put plainly: BLI, 56C stress.

For the next experiment, the target named is T33, PIV1070 (PIV1).
T33 construct: F113G, F114S, A466I, S473I, G134A
Put plainly: BLI, 56C stress.

Description for PIV1014: (§4) All measurements were conducted at 30° C. temperature in 96-well black plates (Corning, Corning, NY) with a final volume of 240 μL per well at a constant agitation rate of 1000 RPM.
as §3
Description for PIV1023: as §4, §3
Description for PIV1024: as §4, §3
Description for PIV1026: as §4, §3
Description for PIV1027: as §4, §3
Description for PIV1028: as §4, §3
Description for PIV1030: as §4, §3
Description for PIV1031: as §4, §3
Description for PIV1033: as §4, §3
Description for PIV1036: as §4, §3
Description for PIV1039: as §4, §3
Description for PIV1069: as §2, §3
Description for PIV1070: as §2, §3
Description for hMPV A F WT Control: as §2
(§5) Conformation integrity of hMPV A F protein mutants were evaluated by thermal stress experiments. Crude cell culture supernatants were normalized based on the results of the titer quantitation and then incubated for 1 hour at room temperature and two higher temperatures. […] Anti-Human IgG Fc Capture (AHC) biosensors were first equilibrated in PB before being dipped into more PB to establish the initial baseline. […] The mAb-bound biosensors were then dipped into the thermal stressed cell culture supernatants for 5 minutes. The kinetics analysis was done by OCTET data analysis software (version 12.0, Sartorius) based on curve fitting of the entire associate step.
Description for hMPV B F WT Control: as §4
(§6) Conformation integrity of hMPV B F protein mutants were evaluated by a thermal stress experiment. Crude cell culture supernatants were normalized based on the results of the titer quantitation and then incubated for 1 hour at room temperature and two higher temperatures. For the testing of hMPV B single mutants, the two temperatures were 53° C. and 56° C. After the incubation, the protein mutants were probed with prefusion specific monoclonal antibody hMPV-2 by OCTET HTX. Anti-Human IgG Fc Capture (AHC) biosensors were first equilibrated in PB before being dipped into more PB for to establish the initial baseline. Biosensors were incubated with hMPV-2 before being equilibrated in PB to establish the experimental baseline. The mAb-bound biosensors were then dipped into the thermal stresses cell culture supernatants for 5 minutes.
Description for hMPV078: as §2, §5
Description for hMPV079: as §2, §5
Description for hMPV081: as §2, §5
Description for hMPV084: as §2, §5
Description for hMPV086: as §2, §5
Description for hMPV088: as §2, §5
Description for hMPV089: as §2, §5
Description for hMPV097: as §2, §5
Description for hMPV100: as §4, §6
Description for hMPV101: as §4, §6
Description for hMPV102: as §4, §6
Description for hMPV103: as §4, §6
Description for hMPV104: as §4, §6
Description for hMPV105: as §4, §6
Description for hMPV106: as §4, §6
Description for hMPV107: as §4, §6
Description for hMPV108: as §4, §6

B1: hMPV-2 mAb (antibody, V domains shown)
VH: QVQLQQSGAEVKKPGASVKVSCKASGYTFTSYGISWVRQAPGQGLEWMGWISGYNGNTNYAQTFQGTFTMTTDTSTSTAYMELRRLRSGDTAVYYCARDRYYASGSYNGMDVWGQGTTVTVSS
VL: QSALTQPPSASGAPGQRVTVSCSGSSSNVGSSSVYWYQQLPGTAPKLLIYRNNQRPSGVPDRFSGSKSGTSASLAISGLRSEDEADYYCAAWDDSLSGWVFGGGTKLTVLG
notes: human IgG1
As to B1, the dissociation constant Kd (as a rule, the constant that tells how readily two partners part at equilibrium) in experiment [1] stood at 0.685 nM. Besides, the “Response Shift” value with hMPV106 is 0.397 nm; with hMPV B F WT Control, 0.005 nm; with hMPV103 it was 0.041 nm; in the experiment with hMPV102, 0.007 nm; with hMPV100, 0.779 nm; in the experiment with hMPV104, -0.11 nm. In addition, the “Response Shift” value with hMPV107 was determined as 0.519 nm; with hMPV101, 0.649 nm; in the experiment with hMPV105, 0.064 nm; with hMPV108, 0.04 nm; in the experiment with hMPV086, 0.746 nm; with hMPV081, 0.778 nm. Further, the “Response Shift” value with hMPV084 is 0.776 nm; with hMPV A F WT Control, -0.014 nm; with hMPV089, 0.801 nm; with hMPV088 it was 0.816 nm; with hMPV078, 0.757 nm; with hMPV097 it was 0.82 nm. Further, the “Response Shift” value with hMPV079 is 0.73 nm. Moreover, the “Binding response BLI” value in [2] is 1.21 nm.

B2: PIV1-8 mAb (antibody, V domains shown)
VH: QVQLVQSGAEVKKPGSSVKVSCEASGGTFSNYVISWVRQAPGQGLEWMGGIIPVFATAKYAQKFQGRVTIIADQSTNTAYLELSSLRSDDTAVYFCASVDSGGTWWDAFAIWGQGTMVTVSS
VL: QAVVTQPRSVSGSPGQAVTISCTGTSSDVGGYNYVSWYQHHPGKAPKLIIYDVTKRPSGVPDRFSGSKSGNTASLTISGLQTEYEADYYCCSYAGSYTLVFGGGTKLTVLG
notes: human IgG1; also called hPIV1-8 mAb; hPIV1-8
Molecule B2 registered a Kd in experiment [3] of 0.885 nM. The “Response Shift” value in the experiment with PIV1028 is -0.052 nm; with PIV1031, 0.489 nm; with PIV1036 it was -0.042 nm; with PIV1033 it was -0.073 nm; with PIV1039, -0.055 nm; in the experiment with PIV1026, -0.039 nm. Also, the “Response Shift” value is -0.016 nm with PIV1024; -0.046 nm with PIV1030; -0.001 nm in the experiment with PIV1023; -0.02 nm with PIV1027; 0.009 nm with PIV1014; 0.458 nm in experiment [4]. Also, the entries for the “Response Shift” value with PIV1069 and in the experiment with PIV1070 were 0.819 nm and 0.859 nm, respectively. The “Binding response BLI” value in experiment [2] is -0.051 nm.
